# Results as given in patent publication US20240409629A1 (CHIA TAI TIANQING PHARMACEUTICAL GROUP, published 2024).
# Assays:
# human CLDN18.2 [1] = target: human CLDN18.2 (human); test: cell-based or functional assay
# human CLDN18.2 [2] = target: T1, human CLDN18.2 (human); test: FACS, KATOIII cells (natural CLDN18.2)
# T1 construct: also called claudin18.2
# Protocol: (§1) Based on the FACS method, the binding activity of anti-CLDN18.2 humanized antibodies for the cell lines KATOIII (Cell Bank of the Chinese Academy of Sciences) and NUGC-4 (Cell Bank of the Chinese Academy of Sciences) naturally expressing CLDN18.2 was analyzed. […] See Example 3 for the specific method.
# human CLDN18.2 [3] = target: T1, human CLDN18.2; test: FACS, NUGC-4 cells (natural CLDN18.2)
# Protocol: as §1
# human CLDN18.2 [4] = target: T1, human CLDN18.2; test: cell-based or functional assay; remark: listed apart in the source
# human CLDN18.2 [5] = target: T1, human CLDN18.2; test: FACS, NUGC-4 cells (natural CLDN18.2); remark: listed apart in the source
# Protocol: as §1
# human CLDN18.2 [6] = target: T1, human CLDN18.2; test: cell-based or functional assay; remark: listed apart in the source
# human CLDN18.2 [7] = target: T1, human CLDN18.2; test: FACS, KATOIII cells (natural CLDN18.2); remark: listed apart in the source
# Protocol: as §1
Binder,"ADCC EC50, Jurkat-CD16a v158-NFAT-luciferase effector cells, KATOIII target cells (human CLDN18.2 [1]) [nM]","ADCC EC50, Jurkat-CD16a v158-NFAT-luciferase effector cells, U2OS-CLDN18.2 target cells (human CLDN18.2 [1]) [nM]",EC50 (human CLDN18.2 [2]) [nM],EC50 (human CLDN18.2 [3]) [nM],"CDC EC50, NIH-3T3-CLDN18.2 target cells (human CLDN18.2 [4]) [nM]",EC50 (human CLDN18.2 [5]) [nM],"ADCC EC50, Jurkat-CD16a v158-NFAT-luciferase effector cells, NIH-3T3-CLDN18.2 target cells (human CLDN18.2 [6]) [nM]","ADCC EC50, Jurkat-CD16a v158-NFAT-luciferase effector cells, NUGC-4 target cells (human CLDN18.2 [6]) [nM]",EC50 (human CLDN18.2 [7]) [nM]
"humanized antibody hz40F6-1.3 (antibody, human IgG1, kappa, V domains shown) VH: QVQLVESGGGVVQPGRSLRLSCAASGFTLTSYGVYWVRQAPGKGLEWVAVVWAGGNTNYADALKGRFTISKDNSKSTLYLQMNSLRAEDTAVYYCARDRGRLLAMDYWGQGTLVTVSS VL: DIVMTQSPDSLAVSLGERATINCKSSQSLLNSGNQKNYLAWYQQKPGQPPKLLIYGASTRESGVPDRFTGSGSGTDFTLTISSLQAEDVAVYYCQNDHFFPFTFGQGTKVEIKR",,,,,0.84,17.7,0.017,0.023,7.9
"humanized antibody hz28G3-2.3 (antibody, human IgG1, kappa, V domains shown) VH: QVQLVQSGAEVKKPGASVKVSCKTSGYSFTDYLMLWVRQAHGQSLEWMGNINPYYGRTTYALKFKGRVTMTVDRSTSTVYMELSSLRSEDTAVYYCARDGYSLRNAMDYWGQGTLVTVSS VL: DIVMTQSPYSLAVSLGERATINCKSSQSLFNSGNQKNYLAWYQQKPGQPPKLLIYGASTRESGVPDRFTGSGSGTDFTLTISSLQAEDVAVYYCQNAHSYPYTFGQGTKVEIKR",0.209,0.019,6.54,11.9,,,,,
"humanized antibody hz40F6-2.1 (antibody, human IgG1, kappa, V domains shown) VH: QVQLVESGGGVVQPGRSLRLSCAASGFTLTSYGVYWVRQAPGKGLEWVAVVWAGGNTNYADSVKGRFTISKDNSKSTLYLQMNSLRAEDTAVYYCARDRGRLLAMDYWGQGTLVTVSS VL: DIVMTQSPDSLAVSLGERATINCKSSQSLLNSGNQKNYLAWYQQKPGQPPKLLIYGASTRESGVPDRFSGSGSGTDFTLTISSLQAEDVAVYYCQNDYFFPFTFGQGTKVEIKR",,,,,3.8,18.7,0.012,0.149,8.77
"humanized antibody hz28G3-1.4 (antibody, human IgG1, kappa, V domains shown) VH: QVQLVQSGAEVKKPGASVKVSCKASGYTFTDYLMLWVRQAHGQSLEWMGNINPYYGRTYYALKFQGRVTMTVDRSTSTVYMELSSLRSEDTAVYYCARDGYSLRNAMDYWGQGTLVTVSS VL: DIVMTQSPDSLAVSLGERATINCKSSQSLFNSGNQKNYLAWYQQKPGQPPKLLIYGASTRESGVPDRFSGSGSGTDFTLTISSLQAEDVAVYYCQNAHSYPYTFGQGTKVEIKR",0.184,0.017,5.83,14,,,,,
"humanized antibody hz28G3-2.4 (antibody, human IgG1, kappa, V domains shown) VH: QVQLVQSGAEVKKPGASVKVSCKASGYTFTDYLMLWVRQAHGQSLEWMGNINPYYGRTYYALKFQGRVTMTVDRSTSTVYMELSSLRSEDTAVYYCARDGYSLRNAMDYWGQGTLVTVSS VL: DIVMTQSPYSLAVSLGERATINCKSSQSLFNSGNQKNYLAWYQQKPGQPPKLLIYGASTRESGVPDRFTGSGSGTDFTLTISSLQAEDVAVYYCQNAHSYPYTFGQGTKVEIKR",0.275,0.017,5.62,14.2,,,,,

# Second part, the binder after the results:
"ADCC EC50, Jurkat-CD16a v158-NFAT-luciferase effector cells, KATOIII target cells (human CLDN18.2 [1]) [nM]","ADCC EC50, Jurkat-CD16a v158-NFAT-luciferase effector cells, U2OS-CLDN18.2 target cells (human CLDN18.2 [1]) [nM]",EC50 (human CLDN18.2 [2]) [nM],EC50 (human CLDN18.2 [3]) [nM],"CDC EC50, NIH-3T3-CLDN18.2 target cells (human CLDN18.2 [4]) [nM]",EC50 (human CLDN18.2 [5]) [nM],"ADCC EC50, Jurkat-CD16a v158-NFAT-luciferase effector cells, NIH-3T3-CLDN18.2 target cells (human CLDN18.2 [6]) [nM]","ADCC EC50, Jurkat-CD16a v158-NFAT-luciferase effector cells, NUGC-4 target cells (human CLDN18.2 [6]) [nM]",EC50 (human CLDN18.2 [7]) [nM],Binder
0.396,0.015,5.84,14.1,,,,,,"humanized antibody hz28G3-1.2 (antibody, human IgG1, kappa, V domains shown) VH: QVQLVQSGAEVKKPGASVKVSCKASGYTFTDYLMLWVRQAPGQGLEWMGNINPYYGRTYYALKFQGRVTMTVDRSTSTVYMELSSLRSEDTAVYYCARDGYSLRNAMDYWGQGTLVTVSS VL: DIVMTQSPDSLAVSLGERATINCKSSQSLFNSGNQKNYLAWYQQKPGQPPKLLIYGASTRESGVPDRFSGSGSGTDFTLTISSLQAEDVAVYYCQNAHSYPYTFGQGTKVEIKR"
,,,,0.54,16,0.03,0.019,7.42,"humanized antibody hz40F6-1.2 (antibody, human IgG1, kappa, V domains shown) VH: QVQLVESGGGVVQPGRSLRLSCAASGFTLTSYGVYWVRQAPGKGLEWVAVVWAGGNTNYNSALMSRFTISKDNSKSTLYLQMNSLRAEDTAVYYCARDRGRLLAMDYWGQGTLVTVSS VL: DIVMTQSPDSLAVSLGERATINCKSSQSLLNSGNQKNYLAWYQQKPGQPPKLLIYGASTRESGVPDRFTGSGSGTDFTLTISSLQAEDVAVYYCQNDHFFPFTFGQGTKVEIKR"
,,,,1.47,20,0.013,0.045,8.24,"humanized antibody hz40F6-1.1 (antibody, human IgG1, kappa, V domains shown) VH: QVQLVESGGGVVQPGRSLRLSCAASGFTLTSYGVYWVRQAPGKGLEWVAVVWAGGNTNYADSVKGRFTISKDNSKSTLYLQMNSLRAEDTAVYYCARDRGRLLAMDYWGQGTLVTVSS VL: DIVMTQSPDSLAVSLGERATINCKSSQSLLNSGNQKNYLAWYQQKPGQPPKLLIYGASTRESGVPDRFTGSGSGTDFTLTISSLQAEDVAVYYCQNDHFFPFTFGQGTKVEIKR"
,,,,0.53,14.9,0.01,0.019,7.54,"humanized antibody hz40F6-2.2 (antibody, human IgG1, kappa, V domains shown) VH: QVQLVESGGGVVQPGRSLRLSCAASGFTLTSYGVYWVRQAPGKGLEWVAVVWAGGNTNYNSALMSRFTISKDNSKSTLYLQMNSLRAEDTAVYYCARDRGRLLAMDYWGQGTLVTVSS VL: DIVMTQSPDSLAVSLGERATINCKSSQSLLNSGNQKNYLAWYQQKPGQPPKLLIYGASTRESGVPDRFSGSGSGTDFTLTISSLQAEDVAVYYCQNDYFFPFTFGQGTKVEIKR"
0.184,0.019,7.25,12.1,,,,,,"humanized antibody hz28G3-2.1 (antibody, human IgG1, kappa, V domains shown) VH: QVQLVQSGAEVKKPGASVKVSCKTSGYSFTDYLMLWVRQAPGQGLEWMGNINPYYGRTTYALKFKGRVTMTVDRSTSTVYMELSSLRSEDTAVYYCARDGYSLRNAMDYWGQGTLVTVSS VL: DIVMTQSPYSLAVSLGERATINCKSSQSLFNSGNQKNYLAWYQQKPGQPPKLLIYGASTRESGVPDRFTGSGSGTDFTLTISSLQAEDVAVYYCQNAHSYPYTFGQGTKVEIKR"
0.861,0.017,5.92,12.4,,,,,,"humanized antibody hz28G3-2.2 (antibody, human IgG1, kappa, V domains shown) VH: QVQLVQSGAEVKKPGASVKVSCKASGYTFTDYLMLWVRQAPGQGLEWMGNINPYYGRTYYALKFQGRVTMTVDRSTSTVYMELSSLRSEDTAVYYCARDGYSLRNAMDYWGQGTLVTVSS VL: DIVMTQSPYSLAVSLGERATINCKSSQSLFNSGNQKNYLAWYQQKPGQPPKLLIYGASTRESGVPDRFTGSGSGTDFTLTISSLQAEDVAVYYCQNAHSYPYTFGQGTKVEIKR"
